According to US20020094516:

Assays:
[1] = system: T1, phiC31 integrase mutant 1C1 (Phage phiC31); test: cell_activity; details: human 293 cells, attB plasmid integration into genome; integration at psiA shown by PCR
T1 sequence: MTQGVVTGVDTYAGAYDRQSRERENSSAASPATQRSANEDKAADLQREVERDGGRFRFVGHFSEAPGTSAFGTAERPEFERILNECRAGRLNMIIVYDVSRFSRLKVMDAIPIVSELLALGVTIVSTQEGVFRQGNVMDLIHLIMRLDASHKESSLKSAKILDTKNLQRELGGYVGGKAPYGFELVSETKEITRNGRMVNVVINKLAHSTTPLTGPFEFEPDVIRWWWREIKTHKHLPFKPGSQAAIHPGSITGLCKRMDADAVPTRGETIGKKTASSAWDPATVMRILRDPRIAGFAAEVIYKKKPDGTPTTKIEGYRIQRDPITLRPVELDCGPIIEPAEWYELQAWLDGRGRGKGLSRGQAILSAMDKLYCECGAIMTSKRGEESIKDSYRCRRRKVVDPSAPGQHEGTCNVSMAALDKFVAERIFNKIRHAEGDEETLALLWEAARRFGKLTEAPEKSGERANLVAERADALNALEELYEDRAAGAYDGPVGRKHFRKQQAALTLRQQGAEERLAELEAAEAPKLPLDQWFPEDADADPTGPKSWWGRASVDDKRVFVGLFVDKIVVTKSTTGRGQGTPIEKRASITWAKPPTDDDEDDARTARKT

[2] = system: T2, phiC31 integrase wild-type (Phage phiC31); test: cell_activity; details: human 293 cells, attB plasmid integration into genome, G418 selection
T2 sequence: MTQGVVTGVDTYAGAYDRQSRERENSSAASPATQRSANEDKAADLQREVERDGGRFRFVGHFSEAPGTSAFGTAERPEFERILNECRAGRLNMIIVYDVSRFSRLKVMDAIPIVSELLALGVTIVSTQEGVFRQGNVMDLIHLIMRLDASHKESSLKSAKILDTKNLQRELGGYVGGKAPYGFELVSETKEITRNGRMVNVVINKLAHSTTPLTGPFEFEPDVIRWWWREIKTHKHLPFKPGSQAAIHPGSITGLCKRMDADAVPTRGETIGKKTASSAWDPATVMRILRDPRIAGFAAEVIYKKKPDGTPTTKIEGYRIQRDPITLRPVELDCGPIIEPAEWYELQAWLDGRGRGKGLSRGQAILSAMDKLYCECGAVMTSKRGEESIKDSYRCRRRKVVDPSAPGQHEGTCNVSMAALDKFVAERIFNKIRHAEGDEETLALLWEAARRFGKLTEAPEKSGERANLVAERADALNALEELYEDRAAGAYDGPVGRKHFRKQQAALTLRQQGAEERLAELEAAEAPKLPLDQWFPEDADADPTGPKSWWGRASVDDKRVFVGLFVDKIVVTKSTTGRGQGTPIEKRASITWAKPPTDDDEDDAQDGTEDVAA

With “CGATGTAGGTCACGGTCTCGAAGCCGCGGTGCGGGTGCCAGGGCGTGCCCTTGGGCTCCCCGGGCGCGTACTCCACCTCACCCATCTGGTCCATCATGATGAACGGGTCGAGGTGGCGGTAGTTGATCCCGGCGAACGCGCGGCGCACCGGGAAGCCCTCGCCCTCGAAACCGCTGGGCGCGGTGGTCACGGTGAGCACGGGACGTGCGACGGCGTCGGCGGGTGCGGATACGCGGGGCAGCGTCAGCGGGTTCTCGACGGTCACGGCGGGCATGTCGA (double strand) [phiC31 attB (full length)]” the integration activity (fold colonies vs wild-type integrase) [1] was 2 and the activity (fold colonies over background) [2] was > 10.
